Measured values reported in paper PMC9084892, “Von Willebrand factor A1 domain stability and affinity for GPIbα are differentially regulated by its O-glycosylated N- and C-linker” (eLife, 2022).

What was measured:
GPIbα (Homo sapiens) = GPIbα (Homo sapiens) (UniProt P07359); conditions: cited from earlier work
[1] = molecular target: T1, VWF A1 domain construct A1 short (residues 1264-1469) (human, UniProt P04275 1264-1469); experiment: BLI; biotinylated GPIbα on streptavidin sensors, A1 constructs as analyte; 20 mM HEPES pH 7.5, 0.02% Tween-20, 150 mM NaCl; global fit to a single kon and koff; Octet RED384; conditions: both partners purified
T1 construct: von Willebrand factor, human, A1 domain without the N- and C-linkers, residues 1264-1469, pre-pro-VWF numbering; Both the mammalian and the bacterial methods allow a 1264-1469 construct; If it was made in E. coli, it carried an N-terminal thioredoxin that was cut off with TEV protease; Long-range disulfide Cys1272-Cys1458 is present; source: purified (Ni-NTA, Superdex 200), gel filtered again on …

[2] = molecular target: T2, VWF A1 domain construct A1+OGly+N+C (residues 1238-1489, O-glycosylated) (human, UniProt P04275 1238-1489, O-glycosylated N- and C-linkers); experiment: as above; conditions: both partners purified
T2 construct: von Willebrand factor, human, A1 domain with the N- and C-linkers, residues 1238-1489, pre-pro-VWF numbering; It extends three residues beyond the bacterial A1+N+C so as to include the O-glycosylated residues Ser-1486 and Thr-1487; also called A1NC

[3] = molecular target: T1, VWF A1 domain construct A1 short …; experiment: ITC; GPIbα (250 uM; 550 uM with A1+OGly+N+C) titrated into A1 (22 uM; 50 uM with A1+OGly+N+C); 150 mM NaCl, 20 mM Tris-HCl pH 7.5, 22°C; MicroCal iTC200; conditions: both partners purified

von Willebrand factor A1 (tethered, high-affinity state) (from UniProt P04275)
Kd (GPIbα (Homo sapiens)): 80 nM

B1: Wild-type GPIbα, residues 1-290 of the mature protein, with biotinylated Avi-tag and His6 tag (domain or fragment)
chain: HPICEVSKVASHLEVNCDKRNLTALPPDLPKDTTILHLSENLLYTFSLATLMPYTRLTQLNLDRCELTKLQVDGTLPVLGTLDLSHNQLQSLPLLGQTLPALTVLDVSFNRLTSLPLGALRGLGELQELYLKGNELKTLPPGLLTPTPKLEKLSLANNNLTELPAGLLNGLENLDTLLLQENSLYTIPKGFFGSHLLPFAFLHGNPWLCNCEILYFRRWLQDNAENVYVWKQGVDVKAMTSNVASVQCDNSDKFPVYKYPGKGCPTLGDEGDTDLYDYYPEEDTEGDKVR
modifications: biotin on the Avi-tag
Kd [1]: 180 nM | Kd [2]: 9200 nM

B2: Wild-type GPIbα, residues 1-290 of the mature protein, with His6 tag (no Avi-tag) (domain or fragment)
chain: HPICEVSKVASHLEVNCDKRNLTALPPDLPKDTTILHLSENLLYTFSLATLMPYTRLTQLNLDRCELTKLQVDGTLPVLGTLDLSHNQLQSLPLLGQTLPALTVLDVSFNRLTSLPLGALRGLGELQELYLKGNELKTLPPGLLTPTPKLEKLSLANNNLTELPAGLLNGLENLDTLLLQENSLYTIPKGFFGSHLLPFAFLHGNPWLCNCEILYFRRWLQDNAENVYVWKQGVDVKAMTSNVASVQCDNSDKFPVYKYPGKGCPTLGDEGDTDLYDYYPEEDTEGDKVR
modifications: Mature 1-290 = precursor 17-306 (signal peptide 1-16). The His6 tag is left out; no Avi-tag or biotin. Expressed in HEK293, so glycosylated and disulfide-bonded.
fold higher affinity of A1 short than of A1+OGly+N+C [3]: 39 fold
